Consider one molecule from publication PMC2811071.

The data set deals with T1, raver1 RRM1 (human (Homo sapiens), UniProt Q8IY67 59-130).
T1 sequence: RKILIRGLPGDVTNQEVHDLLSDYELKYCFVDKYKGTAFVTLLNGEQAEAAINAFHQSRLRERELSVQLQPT
As to the kind of experiment: ITC. Background: In ITC the heat of successive injections is recorded.

On to UCAUGCAGUCUG (ssRNA) [vinculin mRNA 12-mer], for which the binding result is on record as “binds”.
